These results are taken from US20250051454A1 (DUKE UNIVERSITY, published 2025).

The target in assay [1] is T1, HLA-E-RL9HIV single chain trimer on transfected 293T cells (human, UniProt P61769 21-119; P13747 22-358).
T1 construct: also called control HLA-E-peptide complex
Nature of the assay: flow cytometry, SCT-transfected 293T cells, MFI bar chart [E]. (A flow cytometer gives signals particle by particle.)

The target of assay [2] is T2, HLA-E-RL9SIV single chain trimer on transfected 293T cells (human, UniProt P61769 21-119; P13747 22-358).
T2 construct: also called control HLA-E-peptide complex
The assay is described as above.

The target of assay [3] is T3, soluble HLA-E-VL9 complex (HLA-E*01:03 heavy chain, beta2-microglobulin, VL9 peptide …) (human).
T3 construct: also called VL9 peptide-loaded HLA-E
In words: SPR, antibody (human IgG1) on CM5 chip, soluble HLA-E-VL9 flowed over; CA123 on a human IgG1 backbone. A general note: Surface plasmon resonance follows binding to a sensor surface in real time, without labels.

Assay [4] has as its target T3, soluble HLA-E-VL9 complex (HLA-E*01:03 …).
For assay [5], the target named is T4, soluble HLA-E-RL9SIV complex (Homo sapiens).
T4 construct: C-trap-stabilized in the ELISA, biotinylated in the SPR; control antigen; also called C-trap-stabilized HLA-E-RL9SIV
Nature of the assay: sandwich ELISA: plate coated with the antibody in serial dilution, C-trap-stabilized HLA-E-RL9SIV added, detection with HRP anti-human β2M [panel C]. For orientation: An ELISA detects its analyte on a solid surface through an enzyme-linked reagent.

In assay [6] the target is HLA-E on K562-E cells loaded with microbiome-derived peptide […] (Pseudomonas formosensis) (human, UniProt P13747 22-358; P61769 21-119). Nature of the assay: flow cytometry on peptide-loaded K562-E cells, antibody 10 µg/ml.
The target of assay [7] is HLA-E on K562-E cells loaded with microbiome-derived peptide […] (Stenotrophomonas sp.) (human, UniProt P13747 22-358; P61769 21-119). Described as above.
Assay [8] concerns the target HLA-E on K562-E cells loaded with microbiome-derived peptide […] (Escherichia coli MS 175-1) (human, UniProt P13747 22-358; P61769 21-119). The description is as above.
The target in assay [9] is T3, soluble HLA-E-VL9 complex (HLA-E*01:03 …). In words: SPR, antibody on CM5 chip, soluble HLA-E-VL9 flowed over, 1:1 model; IgM 3H4.
Assay [10] has as its target T2, HLA-E-RL9SIV single chain trimer on …. In words: flow cytometry on SCT-transfected 293T cells.
The target of assay [11] is T5, soluble HLA-E-RL9HIV complex (Homo sapiens).
T5 construct: C-trap-stabilized in the ELISA, biotinylated in the SPR; control antigen; also called C-trap-stabilized HLA-E-RL9HIV
In words: sandwich ELISA: plate coated with the antibody in serial dilution, C-trap-stabilized HLA-E-RL9HIV added, detection with HRP anti-human β2M [panel C].

In a further assay the target is T6, scleroderma 70 (Scl-70) (UniProt P11387 2-765).
T6 sequence (looked up): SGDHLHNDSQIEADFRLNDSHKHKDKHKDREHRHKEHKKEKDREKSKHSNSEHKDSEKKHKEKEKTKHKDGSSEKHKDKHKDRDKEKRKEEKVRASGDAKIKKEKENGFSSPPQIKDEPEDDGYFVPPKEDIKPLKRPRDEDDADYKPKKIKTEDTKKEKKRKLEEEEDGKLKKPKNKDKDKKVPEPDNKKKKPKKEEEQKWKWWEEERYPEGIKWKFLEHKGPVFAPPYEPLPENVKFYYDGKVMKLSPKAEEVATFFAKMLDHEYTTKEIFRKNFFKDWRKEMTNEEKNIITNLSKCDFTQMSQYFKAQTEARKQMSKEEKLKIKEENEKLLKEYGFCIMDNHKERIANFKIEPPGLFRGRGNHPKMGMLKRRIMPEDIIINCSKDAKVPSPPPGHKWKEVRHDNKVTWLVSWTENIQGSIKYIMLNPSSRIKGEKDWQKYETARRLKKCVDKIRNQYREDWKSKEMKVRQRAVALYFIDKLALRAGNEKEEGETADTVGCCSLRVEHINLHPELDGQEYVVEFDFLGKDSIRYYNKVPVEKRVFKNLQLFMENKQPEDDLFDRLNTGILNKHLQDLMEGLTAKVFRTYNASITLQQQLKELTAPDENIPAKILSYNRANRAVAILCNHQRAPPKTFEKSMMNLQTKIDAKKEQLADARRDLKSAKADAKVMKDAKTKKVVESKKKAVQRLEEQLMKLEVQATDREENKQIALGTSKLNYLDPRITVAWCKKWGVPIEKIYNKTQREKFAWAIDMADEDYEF
In words: AtheNA autoantigen assay [panel H].

Assay [12] addresses T7, Sjogren's syndrome antigen (SSB) (UniProt P05455 1-408).
T7 sequence (looked up): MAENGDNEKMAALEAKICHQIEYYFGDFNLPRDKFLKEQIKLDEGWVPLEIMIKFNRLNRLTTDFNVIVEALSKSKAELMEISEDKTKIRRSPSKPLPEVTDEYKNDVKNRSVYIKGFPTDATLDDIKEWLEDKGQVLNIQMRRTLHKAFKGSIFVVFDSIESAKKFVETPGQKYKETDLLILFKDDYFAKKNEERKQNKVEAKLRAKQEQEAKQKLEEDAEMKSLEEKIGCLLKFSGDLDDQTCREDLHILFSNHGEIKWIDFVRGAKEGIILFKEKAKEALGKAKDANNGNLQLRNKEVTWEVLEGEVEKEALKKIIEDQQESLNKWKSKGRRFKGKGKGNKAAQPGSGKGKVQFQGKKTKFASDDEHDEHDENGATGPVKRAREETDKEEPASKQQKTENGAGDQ
Nature of the assay: AtheNA autoantigen assay [panel H].

A further assay deals with T8, Jo-1 antigen (UniProt P12081 2-509).
T8 sequence (looked up): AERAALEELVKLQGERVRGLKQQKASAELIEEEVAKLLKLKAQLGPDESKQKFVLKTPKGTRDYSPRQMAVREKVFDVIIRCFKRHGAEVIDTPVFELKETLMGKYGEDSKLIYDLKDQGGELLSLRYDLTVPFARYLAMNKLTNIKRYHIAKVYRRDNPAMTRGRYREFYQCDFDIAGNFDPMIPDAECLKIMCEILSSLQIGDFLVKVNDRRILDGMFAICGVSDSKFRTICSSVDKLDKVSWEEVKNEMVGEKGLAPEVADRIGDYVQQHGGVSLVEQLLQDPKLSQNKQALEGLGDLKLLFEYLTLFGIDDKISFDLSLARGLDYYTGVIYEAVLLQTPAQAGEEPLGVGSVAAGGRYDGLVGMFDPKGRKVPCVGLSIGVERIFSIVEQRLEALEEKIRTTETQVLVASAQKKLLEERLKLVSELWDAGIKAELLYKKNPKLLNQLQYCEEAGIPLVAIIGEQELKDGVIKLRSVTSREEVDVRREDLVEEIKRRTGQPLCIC
In words: AtheNA autoantigen assay [panel H].

A further assay has as its target T9, centromere B (Cent B) (UniProt P07199 1-599).
T9 sequence (looked up): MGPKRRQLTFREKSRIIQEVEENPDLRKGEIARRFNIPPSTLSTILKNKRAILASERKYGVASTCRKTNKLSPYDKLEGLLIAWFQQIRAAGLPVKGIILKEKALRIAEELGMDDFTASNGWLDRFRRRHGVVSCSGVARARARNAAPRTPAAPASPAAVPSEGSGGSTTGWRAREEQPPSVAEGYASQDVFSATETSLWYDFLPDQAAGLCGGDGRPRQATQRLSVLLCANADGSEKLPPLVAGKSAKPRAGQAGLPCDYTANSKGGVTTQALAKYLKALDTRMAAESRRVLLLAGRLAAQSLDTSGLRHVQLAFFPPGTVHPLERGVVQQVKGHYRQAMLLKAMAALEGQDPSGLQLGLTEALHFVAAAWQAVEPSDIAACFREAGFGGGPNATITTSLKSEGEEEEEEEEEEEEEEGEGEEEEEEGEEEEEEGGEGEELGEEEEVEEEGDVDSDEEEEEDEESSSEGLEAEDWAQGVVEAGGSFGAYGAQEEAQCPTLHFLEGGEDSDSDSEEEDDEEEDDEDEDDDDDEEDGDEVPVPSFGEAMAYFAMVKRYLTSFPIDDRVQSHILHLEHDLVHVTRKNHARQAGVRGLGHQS
In words: AtheNA autoantigen assay [panel H].

Assay [13] addresses T3, soluble HLA-E-VL9 complex (HLA-E*01:03 …). Nature of the assay: SPR, antibody on CM5 chip, soluble HLA-E-VL9 flowed over, 1:1 model; human IgG1 backbone 3H4.

B1: CA123 (human antibody on a human IgG1 backbone) (antibody, V domains shown)
VH: EVQLVESGGGLVQPGGSLRLSCAASGFTFSSYWMHWVRQAPGKGLVWVSRINSDGSSTSYADSVKGRFTISRDNAKNTLYLQMNSLRAEDTAVYYCARDQGSTSCYYCYYGMDVWGQGTTVTVSS
VL: not shown
notes: also called CA123 IgG
Take B1: the binding result in assay [1] is “no binding (tested: 2 µg/ml)”. Besides, in assay [2], the binding result is “no binding (tested: 2 µg/ml)”. Binding in assay [3] was put at a Kd of 3.8 µM. In assay [4], the koff (as a rule, the rate constant with which the complex falls apart) was determined as 0.794 s⁻¹ and the kon (commonly the rate constant with which the complex forms) is 211000 M⁻¹ s⁻¹.

B2: 3H4 (mouse IgM monoclonal antibody) (antibody, V domains shown)
VH: EVQLQESGPELVKPGASVKIPCKASGYTFTDYNMDWVKQSHGKSLEWIGDINPNNGGTIYNQKFKGKATLTVDKSSSTAYMELRSLTSEDTAVYYCARPDYYGSSYGWYFDVWGTGTTVTVSS
VL: DIVITQSPSSMYASLGERVTITCKASQDINSYLSWFQQKPGKSPKTLIYRANRLVDGVPSRFSGSGSGQDYSLTISSLEYEDMGIYYCLQYDEFPLTFGAGTKLELK
notes: also called mAb 3H4; IgM 3H4
For the molecule B2, the binding result in [5] is “no binding”; in assay [6] it was “binds”; in [7], “binds”; in assay [8] it was “binds”; in assay [10], “no binding”; in assay [11], “no binding”. In addition, the affinity in assay [9], expressed as Kd, was 8.1 µM.

B3: 3H4 on a human IgG1 backbone (3H4 Gwt) (antibody, V domains shown)
VH: EVQLQESGPELVKPGASVKIPCKASGYTFTDYNMDWVKQSHGKSLEWIGDINPNNGGTIYNQKFKGKATLTVDKSSSTAYMELRSLTSEDTAVYYCARPDYYGSSYGWYFDVWGTGTTVTVSS
VL: DIVITQSPSSMYASLGERVTITCKASQDINSYLSWFQQKPGKSPKTLIYRANRLVDGVPSRFSGSGSGQDYSLTISSLEYEDMGIYYCLQYDEFPLTFGAGTKLELK
notes: also called 3H4 IgG; wild-type 3H4 IgG
With B3, the binding result (in the assay with scleroderma 70 (Scl-70); in assay [12]; with Jo-1 antigen; in the assay with centromere B (Cent B)) was “no binding” each time. In [13], the Kd – broadly, a measure of binding affinity in units of concentration – is 49.8 µM.
